Experimental data from patent CN114621348A (SHENZHEN SHENHI BIOMEDICINE CO LTD, dated 2022).
Each block holds one binder with its values, some of them ahead of it.

Columns and labels:
[1] = target: T1, 磷脂酰肌醇蛋白聚糖3(GPC3) (UniProt P51654 25-554); test: flow cytometry on GPC3-CHO-S cells, full-length IgG1
T1 construct: whole, on cells; also called MXR7; OCI-5

[2] = target: T1, 磷脂酰肌醇蛋白聚糖3(GPC3); test: flow cytometry on HuH-7 cells, full-length IgG1
[3] = target: T1, 磷脂酰肌醇蛋白聚糖3(GPC3); test: flow cytometry on HepG2 cells, full-length IgG1
[4] = target: T1, 磷脂酰肌醇蛋白聚糖3(GPC3); test: flow cytometry on HuH-7 cells
[5] = target: T1, 磷脂酰肌醇蛋白聚糖3(GPC3); test: flow cytometry on HepG2 cells
[6] = target: T1, 磷脂酰肌醇蛋白聚糖3(GPC3); test: flow cytometry on GPC3-CHO-S cells

T1 sequence (P51654 25-554 limits assumed, form in doubt): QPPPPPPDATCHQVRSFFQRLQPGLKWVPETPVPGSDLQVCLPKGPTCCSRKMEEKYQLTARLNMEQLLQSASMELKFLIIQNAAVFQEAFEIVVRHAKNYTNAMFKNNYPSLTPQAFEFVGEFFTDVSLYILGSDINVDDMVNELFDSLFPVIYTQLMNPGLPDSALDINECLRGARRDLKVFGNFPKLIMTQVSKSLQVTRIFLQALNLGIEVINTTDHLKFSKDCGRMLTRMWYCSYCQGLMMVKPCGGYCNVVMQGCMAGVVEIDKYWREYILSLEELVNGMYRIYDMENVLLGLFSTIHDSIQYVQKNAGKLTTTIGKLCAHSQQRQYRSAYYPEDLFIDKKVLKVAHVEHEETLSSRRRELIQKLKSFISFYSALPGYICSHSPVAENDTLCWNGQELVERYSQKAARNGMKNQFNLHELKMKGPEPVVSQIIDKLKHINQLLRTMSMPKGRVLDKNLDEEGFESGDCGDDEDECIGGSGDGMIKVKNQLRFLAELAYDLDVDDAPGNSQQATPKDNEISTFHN

- EC50 [1]: 0.0664 µg/mL
- EC50 [2]: 9.62 µg/mL
B1: D5 (antibody, V domains shown)
VH: EVQLLESGGGVVQPGRSLRLSCAASGFTFSSYAMHWVRQAPGKGLEWVAVISYDGSNKYYADSVKGRFTISRDNSKNTLYLQMNSLRAEDTAVYYCARQYSSSSPFDYWGQGTLVTVSS
VL: NIQLTQSPSTLSASVGDRITITCRASQSISRWLAWYQQKPGKAPKVLIYKASNLENGVPSRFSGSGSGTEFTLTISSLQPDDSATYYCQQHSYSSPWRFGQGTKVEIK
notes: also called 克隆D5

- EC50 [3]: 83.9 µg/mL
- EC50 [1]: 0.0394 µg/mL
- EC50 [2]: 45.1 µg/mL
B2: D38 (antibody, V domains shown)
VH: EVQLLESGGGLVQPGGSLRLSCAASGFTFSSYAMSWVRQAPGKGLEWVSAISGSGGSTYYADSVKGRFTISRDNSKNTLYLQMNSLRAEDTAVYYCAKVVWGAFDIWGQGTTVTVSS
VL: NIQMTQSPSSLSASVGDRVTISCQASQDISNYVNWYQQRPGKAPKLLMYDASNLEVGVPVRFRGSGSGTEFTFTILSLQPEDLGTYYCQQYDSLPFTFGQGTKLDLK
notes: also called 克隆D38

- EC50 [4]: 0.191 µg/mL
- EC50 [5]: 0.172 µg/mL
- EC50 [6]: 0.184 µg/mL
B3: Codrituzumab (antibody, human IgG1, kappa, V domains shown)
VH: QVQLVQSGAEVKKPGASVKVSCKASGYTFTDYEMHWVRQAPGQGLEWMGALDPKTGDTAYSQKFKGRVTLTADKSTSTAYMELSSLTSEDTAVYYCTRFYSYTYWGQGTLVTVSS
VL: DVVMTQSPLSLPVTPGEPASISCRSSQSLVHSNRNTYLHWYLQKPGQSPQLLIYKVSNRFSGVPDRFSGSGSGTDFTLKISRVEAEDVGVYYCSQNTHVPPTFGQGTKLEIKR
notes: also called GC33; GPC3阳性抗体

- EC50 [3]: 18.3 µg/mL
B4: D42 (antibody, V domains shown)
VH: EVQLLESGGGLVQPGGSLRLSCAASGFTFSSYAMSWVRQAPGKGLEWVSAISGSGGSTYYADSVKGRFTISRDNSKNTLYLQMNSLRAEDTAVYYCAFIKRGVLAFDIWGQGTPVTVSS
VL: DIQLTQSPSSVSASVGDRVVITCRASQSLGNWLAWYQQKPGKAPNLLIYGASTLQTGVPSRFSGFHSGGEYTLSISNLQPEDAATYYCQQASSIPLTFGGGTKVEIK
notes: also called 克隆D42

- EC50 [3]: 7.94 µg/mL
- EC50 [1]: 0.0316 µg/mL
B5: D35 (antibody, V domains shown)
VH: EVQLVESGGGVVKPGGSLRLSCAASGFIFSDSYMTWLRQAPGKGLEWVSYISGSASDIKYADSVKGRFTISRDNAKNSLYLQMNSLRVEDTAVYYCARDPRLAGIWGQGTTVTVSS
VL: DIQLTQSPSTLSASIGDRVTITCRASQRVSSRLAWYQQKPGKAPKLLIYKTSNLEAEVPSRFSGSGSGTEFTLTISSLQPDDFATYYCQQYHSYPLTFGGGTKVEIK
notes: also called 克隆D35

- EC50 [1]: 0.0314 µg/mL
- EC50 [2]: 6.21 µg/mL
B6: D37 (antibody, V domains shown)
VH: QVQLLESGGGLVQPGGSLRLSCAASGFTFSSYAMNWVRQAPGKGLEWVSTISGSGGSTYYADSVKGRFTISRDNSKNTLYLQMNSLRAEDTAVYYCARGSWGAFDIWGQGTPVTVSS
VL: DIQLTQSPSSLSASVGDRVTITCQASQGISNYVNWYQQKPGKAPELLISDAYNLEAGVPSTFSGSGSGTQFTFTISSLQPEHIGTYYCQQFETIPWTFGQGTKIEVK
notes: also called 克隆D37

- EC50 [2]: 0.0228 µg/mL
B7: D47 (antibody, V domains shown)
VH: EVQLLESGGGLVKPGGSLRLSCAASGFTFSSYSMNWVRQAPGKGLEWVSSISSSSSYIYYADSVKGRFTISRDNAKNSLYLQMNSLRAEDTAVYYCARGAARFDYWGQGTMVTVSS
VL: NIQLTQSPSSVSASVGDRVTITCRASQGIWRWLAWYQHKPGKAPKLLISAASNLQSGVPSRFSGSGSGTDFTLTISSLQPEDVATYYCQQANSFPSLTFGGGTKVDIR
notes: also called 克隆D47

- EC50 [3]: 11.6 µg/mL
- EC50 [1]: 0.0968 µg/mL
B8: D48 (antibody, V domains shown)
VH: EVQLLESGGGLVQPGESLRLSCEASGLTFSSYPMAWVRQAPGKGLEWVSVIYSDGSKKFYADSVKGRFTISRHNSKNTLYLQMNSLRAEDTAVYYCARGISSSGFDYWGQGTLVTVSS
VL: DIQLTQSPSSLSASVGDRVTITCRASQGISSWLAWYQQKPGKAPKLLIYAASSLQSGVPSRFSGSGSGTDFTLTISSLQPEDFATYYCQQGNSFPLTFGGGTKVEIK
notes: also called 克隆D48

- EC50 [1]: 0.0394 µg/mL
B9: D36 (antibody, V domains shown)
VH: EVQLLESGGGLVKPGGSLRLSCAASGFTFSSYSMNWVRQAPGKGLEWVSSISSSSSYIYYADSVKGRFTISRDNAKNSLYLQMNSLRAEDTAVYYCARETTDGGMDVWGQGTLVTVSS
VL: DIQMTQSPSSVSASVGDRVTITCRASQDIGKYLNWYQQKAGKAPNLLIYDASNLKTGVSSRFSGSGSGTEFTFTISSLQPEDIATYFCQQFDDFPYTFGPGTKVGIR
notes: also called 克隆D36
